Assay results published in PMC9482650, “Quantitative fragmentomics allow affinity mapping of interactomes” (Nature Communications, 2022).

Assays:
Experiment in all cases: holdup assay
Parameters in all cases: key: below the threshold = too weak to quantify, mostly under pKd 3.1 to 4
GRIP1_7, Q9Y3R0 = molecular target: T1, GRIP1_7, Q9Y3R0
T1 sequence (Q9Y3R0 999-1096, limits assumed, looked up): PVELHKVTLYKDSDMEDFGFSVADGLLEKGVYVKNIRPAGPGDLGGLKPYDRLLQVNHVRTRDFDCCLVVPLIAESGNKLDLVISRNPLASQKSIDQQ

IL16_4, Q14005 = molecular target: IL16_4, Q14005
NHERF2_2, Q15599 = molecular target: NHERF2_2, Q15599
LIN7A, O14910 = molecular target: T2, LIN7A, O14910
T2 sequence (O14910 103-200, limits assumed, looked up): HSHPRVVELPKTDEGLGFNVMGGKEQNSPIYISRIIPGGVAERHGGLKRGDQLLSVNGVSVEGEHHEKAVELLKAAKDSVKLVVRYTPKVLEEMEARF

DLG2_2, Q15700 = molecular target: DLG2_2, Q15700
GRIP2_5, Q9C0E4 = molecular target: GRIP2_5, Q9C0E4
GRIP2_4, Q9C0E4 = molecular target: GRIP2_4, Q9C0E4
DLG1_3, Q12959 = molecular target: DLG1_3, Q12959
SCRIB_1, Q14160 = molecular target: SCRIB_1, Q14160
NHERF3_3, Q5T2W1 = molecular target: T3, NHERF3_3, Q5T2W1; settings: plain residues with an end cap or a label only (N-terminal biotin on a linker: ttds)
T3 sequence (Q5T2W1 238-333, limits assumed, looked up): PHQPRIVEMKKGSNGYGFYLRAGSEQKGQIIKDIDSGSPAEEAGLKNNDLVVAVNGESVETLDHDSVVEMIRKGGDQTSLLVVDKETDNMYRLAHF

HTRA3, P83110 = molecular target: T4, HTRA3, P83110; settings: plain residues with an end cap or a label only (N-terminal biotin on a linker: ttds)
T4 sequence (P83110 354-453, limits assumed, looked up): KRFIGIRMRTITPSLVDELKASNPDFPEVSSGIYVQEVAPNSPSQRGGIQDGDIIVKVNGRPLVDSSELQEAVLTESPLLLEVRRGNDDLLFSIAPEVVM

MPP2, Q14168 = molecular target: T5, MPP2, Q14168; settings: plain residues with an end cap or a label only (N-terminal biotin on a linker: ttds)
T5 sequence (Q14168 180-250, limits assumed, looked up): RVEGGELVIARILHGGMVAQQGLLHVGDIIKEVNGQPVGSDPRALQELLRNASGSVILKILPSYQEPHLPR

PDZD7_3, Q9H5P4 = molecular target: T6, PDZD7_3, Q9H5P4
T6 sequence (Q9H5P4 857-944, limits assumed, looked up): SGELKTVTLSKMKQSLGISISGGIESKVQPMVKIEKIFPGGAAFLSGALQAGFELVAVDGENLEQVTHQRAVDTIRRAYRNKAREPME

DFNB31_3, Q9P202 = molecular target: T7, DFNB31_3, Q9P202; settings: plain residues with an end cap or a label only (N-terminal biotin on a linker: ttds)
T7 sequence (Q9P202 811-907, limits assumed, looked up): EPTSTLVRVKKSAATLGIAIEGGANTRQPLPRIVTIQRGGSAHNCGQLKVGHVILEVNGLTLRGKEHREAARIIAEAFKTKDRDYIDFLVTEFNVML

TJP3_3, O95049 = molecular target: T8, TJP3_3, O95049; settings: plain residues with an end cap or a label only (N-terminal biotin on a linker: ttds)
T8 sequence (O95049 375-456, limits assumed, looked up): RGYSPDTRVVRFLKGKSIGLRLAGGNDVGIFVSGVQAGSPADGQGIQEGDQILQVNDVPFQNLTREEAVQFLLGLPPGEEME

GORASP1, Q9BQQ3 = settings: plain residues with an end cap or a label only (N-terminal biotin on a linker: ttds)
ARHGEF11, O15085 = molecular target: T9, ARHGEF11, O15085; settings: plain residues with an end cap or a label only (N-terminal biotin on a linker: ttds)
T9 sequence (O15085 42-136, limits assumed, looked up): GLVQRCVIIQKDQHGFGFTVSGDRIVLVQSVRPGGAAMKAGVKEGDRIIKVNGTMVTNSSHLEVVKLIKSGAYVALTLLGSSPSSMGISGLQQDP

PCLO, Q9Y6V0 = molecular target: T10, PCLO, Q9Y6V0; settings: plain residues with an end cap or a label only (N-terminal biotin on a linker: ttds)
T10 sequence (Q9Y6V0 4491-4600, limits assumed, looked up): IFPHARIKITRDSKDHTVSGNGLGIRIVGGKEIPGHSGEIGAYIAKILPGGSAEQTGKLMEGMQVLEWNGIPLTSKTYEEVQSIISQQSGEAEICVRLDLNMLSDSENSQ

MPDZ_5, O75970 = molecular target: T11, MPDZ_5, O75970; settings: plain residues with an end cap or a label only (N-terminal biotin on a linker: ttds)
T11 sequence (O75970 695-796, limits assumed, looked up): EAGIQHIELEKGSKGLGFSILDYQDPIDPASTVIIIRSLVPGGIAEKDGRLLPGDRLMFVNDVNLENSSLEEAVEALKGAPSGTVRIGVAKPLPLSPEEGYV

LNX1_2, Q8TBB1 = settings: plain residues with an end cap or a label only (N-terminal biotin on a linker: ttds)
LAP2, Q96RT1 = molecular target: LAP2, Q96RT1
DLG2_3, Q15700 = settings: plain residues with an end cap or a label only (N-terminal biotin on a linker: ttds)
TIAM2, Q8IVF5 = molecular target: T12, TIAM2, Q8IVF5; settings: plain residues with an end cap or a label only (N-terminal biotin on a linker: ttds)
T12 sequence (Q8IVF5 885-986, limits assumed, looked up): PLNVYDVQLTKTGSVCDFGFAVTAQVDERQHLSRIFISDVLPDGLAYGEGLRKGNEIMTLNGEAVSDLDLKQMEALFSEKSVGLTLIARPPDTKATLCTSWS

FRMPD1, Q5SYB0 = molecular target: T13, FRMPD1, Q5SYB0
T13 sequence (Q5SYB0 52-145, limits assumed, looked up): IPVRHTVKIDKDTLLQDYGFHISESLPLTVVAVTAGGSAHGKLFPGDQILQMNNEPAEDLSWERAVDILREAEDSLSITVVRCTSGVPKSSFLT

MAST1, Q9Y2H9 = settings: plain residues with an end cap or a label only (N-terminal biotin on a linker: ttds)
[1] = plain residues with an end cap or a label only (N-terminal biotin on a linker: ado-ado)
[2] = plain residues with an end cap or a label only (N-terminal biotin on a linker: ttds)

SCRIB_1, Q14160, sequence (Q14160 718-814): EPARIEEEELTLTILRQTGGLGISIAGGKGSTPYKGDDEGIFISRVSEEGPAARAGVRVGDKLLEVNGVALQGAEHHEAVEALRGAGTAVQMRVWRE
DLG1_3, Q12959, sequence (Q12959 457-571): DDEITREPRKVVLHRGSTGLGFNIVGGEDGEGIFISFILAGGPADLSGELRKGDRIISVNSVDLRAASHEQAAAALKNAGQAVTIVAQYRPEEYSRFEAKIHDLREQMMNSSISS
NHERF2_2, Q15599, sequence (Q15599 142-238): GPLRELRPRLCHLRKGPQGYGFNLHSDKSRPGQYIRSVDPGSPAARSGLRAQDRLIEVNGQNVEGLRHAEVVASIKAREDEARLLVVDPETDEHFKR
IL16_4, Q14005, sequence (Q14005 1229-1329): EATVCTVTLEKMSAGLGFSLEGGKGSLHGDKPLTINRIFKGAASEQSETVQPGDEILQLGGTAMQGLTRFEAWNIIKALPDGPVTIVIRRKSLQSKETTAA
GRIP2_4, Q9C0E4, sequence (Q9C0E4 446-548): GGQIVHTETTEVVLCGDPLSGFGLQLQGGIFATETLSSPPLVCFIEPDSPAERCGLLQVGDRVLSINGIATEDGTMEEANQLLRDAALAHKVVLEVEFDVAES
LAP2, Q96RT1, sequence (Q96RT1 other isoform, or with tags, fused parts or gaps): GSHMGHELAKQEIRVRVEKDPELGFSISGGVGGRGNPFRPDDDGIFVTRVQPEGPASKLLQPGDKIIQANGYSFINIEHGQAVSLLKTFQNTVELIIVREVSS
GRIP2_5, Q9C0E4, sequence (Q9C0E4 544-642): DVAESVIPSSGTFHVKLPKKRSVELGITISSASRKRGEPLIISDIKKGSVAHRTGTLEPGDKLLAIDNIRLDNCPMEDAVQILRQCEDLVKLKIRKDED
GORASP1, Q9BQQ3, sequence (Q9BQQ3 1-208): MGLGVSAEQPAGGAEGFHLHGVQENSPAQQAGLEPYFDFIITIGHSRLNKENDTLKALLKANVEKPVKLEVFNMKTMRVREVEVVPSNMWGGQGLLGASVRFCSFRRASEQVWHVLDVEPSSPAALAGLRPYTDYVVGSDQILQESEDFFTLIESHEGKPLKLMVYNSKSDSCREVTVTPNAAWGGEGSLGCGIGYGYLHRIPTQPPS
MAST1, Q9Y2H9, sequence (Q9Y2H9 962-1065): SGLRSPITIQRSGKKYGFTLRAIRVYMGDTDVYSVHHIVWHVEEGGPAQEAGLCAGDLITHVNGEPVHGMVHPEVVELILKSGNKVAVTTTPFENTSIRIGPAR
LNX1_2, Q8TBB1, sequence (Q8TBB1 371-470): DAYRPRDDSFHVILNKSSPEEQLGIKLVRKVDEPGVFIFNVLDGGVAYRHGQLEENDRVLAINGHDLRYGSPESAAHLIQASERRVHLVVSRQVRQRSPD

B1: NF2, P35240 (peptide)
chain: KSRVAFFEEL
Work on B1 yielded a pKd (GRIP1_7, Q9Y3R0; [1]) of 3.49, a pKd (IL16_4, Q14005; [1]) of 3.68 and a pKd (NHERF2_2, Q15599; [1]) of 3.89. It also gave a pKd (LIN7A, O14910; [1]) of 3.51, a pKd (DLG2_2, Q15700; [1]) of 3.51 and a pKd (GRIP2_5, Q9C0E4; [1]) of 3.54. For the same binder, the pKd (GRIP2_4, Q9C0E4; [1]) was 3.73, the pKd (DLG1_3, Q12959; [1]) was 3.82 and the pKd (SCRIB_1, Q14160; [1]) was 3.64.

B2: CYSLTR2, Q9NS75 (peptide)
chain: SVWLRKETRV
For B2, the pKd (NHERF3_3, Q5T2W1) was 3.52, the pKd (GRIP1_7, Q9Y3R0; [2]) was 3.77 and the pKd (IL16_4, Q14005; [2]) was “below the threshold”. The pKd (HTRA3, P83110) was “below the threshold”, the pKd (MPP2, Q14168) was “below the threshold” and the pKd (PDZD7_3, Q9H5P4; [2]) was 4.86. For the same binder, the pKd (DFNB31_3, Q9P202) was “below the threshold”, the pKd (TJP3_3, O95049) was 3.37 and the pKd (NHERF2_2, Q15599; [2]) was 3.78. The pKd (GORASP1, Q9BQQ3) was 3.7, the pKd (LIN7A, O14910; [2]) was 4.17 and the pKd (DLG2_2, Q15700; [2]) was 5.24. For the same binder, the pKd (ARHGEF11, O15085) was 4.46, the pKd (GRIP2_5, Q9C0E4; [2]) was “below the threshold” and the pKd (GRIP2_4, Q9C0E4; [2]) was “below the threshold”. For the same binder, the pKd (DLG1_3, Q12959; [2]) was 5.57, the pKd (PCLO, Q9Y6V0) was “below the threshold” and the pKd (MPDZ_5, O75970) was 3.36. For the same binder, the pKd (LNX1_2, Q8TBB1) was 3.4, the pKd (LAP2, Q96RT1; [2]) was 4.15 and the pKd (DLG2_3, Q15700) was 5.4. For the same binder, the pKd (TIAM2, Q8IVF5) was “below the threshold”, the pKd (FRMPD1, Q5SYB0; [2]) was “below the threshold” and the pKd (MAST1, Q9Y2H9) was 5.29. For the same binder, the pKd (SCRIB_1, Q14160; [2]) was 4.28.

B3: HPV67-E6, A4U7F2 (peptide)
chain: SRPQRTQTQV
B3 was tested, and the pKd (NHERF3_3, Q5T2W1) was “below the threshold”, the pKd (GRIP1_7, Q9Y3R0; [2]) was “below the threshold” and the pKd (IL16_4, Q14005; [2]) was “below the threshold”. For the same binder, the pKd (HTRA3, P83110) was “below the threshold”, the pKd (MPP2, Q14168) was “below the threshold” and the pKd (PDZD7_3, Q9H5P4; [2]) was 3.65. The pKd (DFNB31_3, Q9P202) was “below the threshold”, the pKd (TJP3_3, O95049) was “below the threshold” and the pKd (NHERF2_2, Q15599; [2]) was “below the threshold”. For the same binder, the pKd (GORASP1, Q9BQQ3) was “below the threshold”, the pKd (LIN7A, O14910; [2]) was “below the threshold” and the pKd (DLG2_2, Q15700; [2]) was 4.81. For the same binder, the pKd (ARHGEF11, O15085) was 4.05, the pKd (GRIP2_5, Q9C0E4; [2]) was “below the threshold” and the pKd (GRIP2_4, Q9C0E4; [2]) was “below the threshold”. For the same binder, the pKd (DLG1_3, Q12959; [2]) was 4.13, the pKd (PCLO, Q9Y6V0) was “below the threshold” and the pKd (MPDZ_5, O75970) was “below the threshold”. For the same binder, the pKd (LNX1_2, Q8TBB1) was “below the threshold”, the pKd (LAP2, Q96RT1; [2]) was “below the threshold” and the pKd (DLG2_3, Q15700) was 4.52. The pKd (TIAM2, Q8IVF5) was “below the threshold”, the pKd (FRMPD1, Q5SYB0; [2]) was “below the threshold” and the pKd (MAST1, Q9Y2H9) was 4.47. The pKd (SCRIB_1, Q14160; [2]) was “below the threshold”.

B4: GRASP, Q7Z6J2 (peptide)
chain: RSLEEEESQL
With B4 the pKd (NHERF3_3, Q5T2W1) was “below the threshold”, the pKd (GRIP1_7, Q9Y3R0; [2]) was “below the threshold” and the pKd (IL16_4, Q14005; [2]) was 3.54. For the same binder, the pKd (HTRA3, P83110) was “below the threshold”, the pKd (MPP2, Q14168) was “below the threshold” and the pKd (PDZD7_3, Q9H5P4; [2]) was 3.98. It also gave a pKd (DFNB31_3, Q9P202) of 3.74, a pKd (TJP3_3, O95049) of 3.65 and a pKd (NHERF2_2, Q15599; [2]) of 5.07. For the same binder, the pKd (GORASP1, Q9BQQ3) was 3.72, the pKd (LIN7A, O14910; [2]) was 3.56 and the pKd (DLG2_2, Q15700; [2]) was “below the threshold”. For the same binder, the pKd (ARHGEF11, O15085) was 3.78, the pKd (GRIP2_5, Q9C0E4; [2]) was “below the threshold” and the pKd (GRIP2_4, Q9C0E4; [2]) was 3.75. For the same binder, the pKd (DLG1_3, Q12959; [2]) was 4.36, the pKd (PCLO, Q9Y6V0) was 3.73 and the pKd (MPDZ_5, O75970) was 3.53. The pKd (LNX1_2, Q8TBB1) was 3.56, the pKd (LAP2, Q96RT1; [2]) was 3.69 and the pKd (DLG2_3, Q15700) was “below the threshold”. The pKd (TIAM2, Q8IVF5) was “below the threshold”, the pKd (FRMPD1, Q5SYB0; [2]) was 3.71 and the pKd (MAST1, Q9Y2H9) was 4.83. For the same binder, the pKd (SCRIB_1, Q14160; [2]) was 3.55.

B5: MUC3B, MUC3A, Q02505;Q9H195 (peptide)
chain: KRPEMTSSSV
For B5, the pKd (PDZD7_3, Q9H5P4; [1]) was “below the threshold”, the pKd (LAP2, Q96RT1; [1]) was 1.89 and the pKd (FRMPD1, Q5SYB0; [1]) was “below the threshold”. The pKd (SCRIB_1, Q14160; [1]) was “below the threshold”.
